Molecular target: atypical chemokine receptor 3 (human (endogenous in hVSMCs)), P25106
Test: proximity ligation; Duolink II PLA on hVSMCs fixed with 4% paraformaldehyde; two primary antibodies from differing species (1:500, 37°C, 105 min); control: omission of one primary antibody; PLA signals per cell counted; cells untreated or incubated 72 h with non-targeting, CXCR4, ACKR3 or AVPR1A siRNA
Conditions: remark: other sources report otherwise

Chain of atypical chemokine receptor 3 (human (endogenous in hVSMCs)), P25106 (P25106 whole entry): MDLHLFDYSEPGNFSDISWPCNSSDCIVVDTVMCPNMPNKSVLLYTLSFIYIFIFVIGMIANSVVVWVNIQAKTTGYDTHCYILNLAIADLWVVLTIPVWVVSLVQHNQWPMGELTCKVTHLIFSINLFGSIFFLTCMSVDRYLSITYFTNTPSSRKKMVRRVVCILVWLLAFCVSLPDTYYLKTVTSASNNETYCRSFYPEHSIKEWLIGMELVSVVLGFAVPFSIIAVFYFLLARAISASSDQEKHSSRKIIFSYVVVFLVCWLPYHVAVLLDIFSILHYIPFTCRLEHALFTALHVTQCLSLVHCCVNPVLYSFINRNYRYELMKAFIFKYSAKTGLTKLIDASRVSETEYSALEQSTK

increase in PLA signals after AVPR1A siRNA, % of NT siRNA: 59%
B1: chemokine (C-X-C motif) receptor 4, P61073 1-352 (receptor)
chain: MEGISIYTSDNYTEEMGSGDYDSMKEPCFREENANFNKIFLPTIYSIIFLTGIVGNGLVILVMGYQKKLRSMTDKYRLHLSVADLLFVITLPFWAVDAVANWYFGNFLCKAVHVIYTVNLYSSVLILAFISLDRYLAIVHATNSQRPRKLLAEKVVYVGVWIPALLLTIPDFIFANVSEADDRYICDRFYPNDLWVVVFQFQHIMVGLILPGIVILSCYCIIISKLSHSKGHQKRKALKTTVILILAFFACWLPYYIGISIDSFILLEIIKQGCEFENTVHKWISITEALAFFHCCLNPILYAFLGAKFKTSAQHALTSVSRGSSLKILSKGKRGGHSSVSTESESSSFHSS
